# B1: anti-FMC63 antibody, 136.20.1 (antibody, mouse IgG2a, kappa, V domains shown)
# VH: EVKLVESGGGLVQPGGSLKLSCAASGFDFSRYWMSWVRQAPGKGLEWIGEINLDSSTINYTPSLKDKFIISRDNAKNTLYLQMSKVRSEDTALYYCARRYDAMDYWGQGTSVTVSS
# VL: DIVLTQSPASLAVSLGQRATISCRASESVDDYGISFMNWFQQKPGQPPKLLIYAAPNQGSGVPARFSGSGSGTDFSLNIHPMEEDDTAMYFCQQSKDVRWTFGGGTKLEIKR
# notes: also called anti-FMC63 (anti-Id) antibody; constructs #151/#152
# Molecular target: T1, FMC63 CAR-Flag (construct #140)
# T1 construct: also called CAR19; CD19 CAR construct
# Test: flow cytometry on 293T cells transfected with construct #140; anti-mouse Fc gamma-PE detection
# Protocol: Cells transfected with construct #140 (SEQ ID NO: 317) (2.5×10\hat{ }5 in 50 ul) were incubated with 50 u1 sup or purified (5 ug/ml as final conc.) protein of constructs#151/#152 (SEQ ID NO: 319/ SEQ ID NO: 320) for 30 min at 4° C., spun and washed twice with FACS buffer. This was followed by another incubation with anti-mouse Fc gamma-PE for 30 min at 4° C. Cells were spun and washed as above, and fixed with 1% PFA in PBS. Fixed cells were analyzed on Accuri 6 for CAR expression binding (PE positive).
# T1 sequence (chain, as listed by the source): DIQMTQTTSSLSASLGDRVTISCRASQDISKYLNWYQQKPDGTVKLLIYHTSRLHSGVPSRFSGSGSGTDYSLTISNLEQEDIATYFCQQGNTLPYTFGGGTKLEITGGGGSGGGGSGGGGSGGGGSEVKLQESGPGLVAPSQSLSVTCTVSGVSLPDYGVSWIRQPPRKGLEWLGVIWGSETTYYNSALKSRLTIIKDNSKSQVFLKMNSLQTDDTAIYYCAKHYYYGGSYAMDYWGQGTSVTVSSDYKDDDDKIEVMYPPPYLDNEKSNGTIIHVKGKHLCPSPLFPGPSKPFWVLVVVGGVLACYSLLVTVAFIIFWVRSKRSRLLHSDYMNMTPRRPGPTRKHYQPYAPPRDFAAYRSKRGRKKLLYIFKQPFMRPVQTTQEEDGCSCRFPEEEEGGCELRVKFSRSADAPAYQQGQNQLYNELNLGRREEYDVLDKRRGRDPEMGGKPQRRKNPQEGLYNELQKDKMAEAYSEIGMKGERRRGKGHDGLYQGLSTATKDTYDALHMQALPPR
binder,measurement,value
B1,binding result,binds

# From patent US20200306375A1 (ALETA BIOTHERAPEUTICS, published 2020)
